The results in this text go back to the supplement of paper PMC12042874.

± gives the uncertainty stated by the source.

One data set can be described thus: amyloid nucleation score (Sup35N fusion, yeast selection) (log enrichment); library NNK2; higher = more nucleation; inactive = no reads after selection. The gist of the method:
(§1)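 Peptides of 20 random codons, each fused to Sup35N, were expressed in psi-negative yeast. Cells were induced with 100 μM copper sulfate for 24 hours and grown 7 days at 30°C on medium lacking adenine and uracil, and plasmid inserts before and after selection were Illumina-sequenced. Nucleation scores are DiMSum log enrichments of output over input reads, centred on the mode score of non-aggregating sequences, and sequences under 100 input reads were excluded.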
On to LDSQMWNMSGQVRTRIGRSV, for which the amyloid nucleation score was 0.459 ± 0.43.
Turning to MEGVAK, the amyloid nucleation score was 0.331 ± 0.8.
TMGTSSLVSAQLICRGTLAK showed an amyloid nucleation score of 0.172 ± 0.62.
Still for that read-out and setting: in the case of RTPTRILQAMLFYSRDHYSI it was 0.218 ± 0.8; in that of YNLSSLLRCDLAAKTRTIFM, -0.575 ± 0.35; in that of TDYQSVVDTVG, 0.019 ± 0.32.
Regarding WSVCARYSSGVCIAHCTQMK, the amyloid nucleation score worked out at 1.3 ± 0.25.
For GCWYIDIWL, the amyloid nucleation score was determined as 1.73 ± 0.11.
HRFIILNIVAFE: the amyloid nucleation score is 0.59 ± 0.28.
With CWDRFTYEYLSFYSLISRV, the amyloid nucleation score result is “inactive”.
The same measure, in the same setting: in the case of RRQRWKRLTNF it was “inactive”.
Same read-out and setting: the value for VRLFLAIMVYVLHSHHRYAD was 0.978 ± 0.74; that for KRSLIINGAATT was 1.61 ± 0.26; that for VALQWMG was 2.2 ± 0.19.
On the same count and under the same terms, in the case of LNWGSNIQAGVHTSRPWGSY it was 0.248 ± 0.43.
LASPGTRFSFGSLVACGVVQ yielded an amyloid nucleation score of -0.178 ± 0.35.
In turn, ASDRWMVYLIHVTSCYVLRV yielded an amyloid nucleation score of -0.062 ± 0.41.
For the substance NYILRQAGEMFGLLGDFGDG, the amyloid nucleation score was -0.165 ± 0.45.
Still for that read-out and setting: the value for VWEGTGPLEICWFCWGEW was 2.5 ± 0.17; that for IRKGSHGSKMIEPVAMRSAC was 4.88 ± 0.083; that for GFIISFYISDSCKSLCWQPM was 0.339 ± 0.53.
In the case of VETMY, the amyloid nucleation score was 1.24 ± 0.43.
The same measure, in the same setting: in the case of PSHFVGFCAHSYDVGVFMWV it was 0.077 ± 0.42; in that of SARRRINGNPCEEMNQRLAV, 1.08 ± 0.53; in that of EKYRGSLMSRLAKMWNCCVT, 1.04 ± 0.27.
On the same count and under the same terms, the value for VHVRGACCHGCRARNVSGHP was 1.05 ± 0.19.
Regarding GSRCITQVLA, the amyloid nucleation score turned out to be 0.157 ± 0.49.
In the case of YMPPSCMSP, the amyloid nucleation score entry is “inactive”.
Turning to CDFAIPYYNGPYSQKFLMTS, the amyloid nucleation score is -0.321 ± 0.8.
The same measure, in the same setting: in the case of RVSTEVFCSLLVGTHLGRGP it was 4.24 ± 0.13.
Still for that read-out and setting: the value for YCCPYYRKVLF was -0.559 ± 0.61.
Same read-out and setting: in the case of TVAVGVIV it was “inactive”.
ITLRRLTVITENPLGWNHIT displayed an amyloid nucleation score of 0.499 ± 0.36.
As for WTMRDLCG, the amyloid nucleation score was found to be 0.526 ± 0.3.
Regarding NYLQCWVFGRESMSLYKIWL, the amyloid nucleation score was -0.081 ± 1.1.
The same measure, in the same setting: the value for YFSCITILGFGSSNSWRRIM was -1.02 ± 0.78.
Same read-out and setting: in the case of YLKDPTFMGVNAFCVVLHFV it was 6.01 ± 0.077; in that of PCSLLKNWYIEAYTALQNIG, 0.383 ± 0.74; in that of ILFVLWKLDRRPCSLLEYTQ, 0.463 ± 0.56.
KQMFRQFLCGNVYNWRYMRA returned an amyloid nucleation score of 0.298 ± 0.56.
Still for that read-out and setting: in the case of RVLGWCSNSWMVEMSNECSW it was 1.13 ± 0.3.
The same measure, in the same setting: the value for NTMTSHMFENNRSIVTYLDV was -0.718 ± 0.76.
For the substance NWLIMYNFAR, the amyloid nucleation score entry is “inactive”.
On the same count and under the same terms, in the case of MQLCYKYRTVVTSSLDPEYM it was -0.066 ± 0.74; in that of GDQPRPKMLLSWHRFLLQQS, 0.887 ± 0.19.
Same read-out and setting: in the case of FVNATVLR it was 1.24 ± 0.16.
Still for that read-out and setting: the value for IRGCLNMFWLKKWDLPRLYF was -0.327 ± 0.63; that for SKQCSKILTIKRMISLTGNE was -0.542 ± 0.49; that for NDCMGWH was “inactive”.
Take ALYCERCYWPV: the amyloid nucleation score worked out at 0.092 ± 0.53.
On the same count and under the same terms, the value for CSWVRSLYNGIVLKKH was -0.652 ± 0.45; that for KTFTWHIVRLYYKYPPMPKV was “inactive”.
The same measure, in the same setting: the value for LSRIRVHSIRLYSVFPVMFC was 3.67 ± 0.072; that for DLTCSC was 0.804 ± 0.3; that for RFLSYTSCLEMIVFCGRVQG was 0.207 ± 0.23.
The same measure, in the same setting: the value for MFRSVRFVCWSRLIDNRYMQ was -0.18 ± 0.34; that for LVEFSSRFQLGFTGSVNS was 1.21 ± 0.16; that for ILCYMVGSRIMCVEHSGC was 8.588 ± 0.064.
For IISSGSIDCVYWTWFLRY, the amyloid nucleation score was -0.396 ± 0.55.
AKYSSLKNMLYGFRRDANMG had an amyloid nucleation score of 0.296 ± 0.65.
RSWIFVSLIDCMEWILMNGS displayed an amyloid nucleation score of -0.451 ± 1.
The same measure, in the same setting: in the case of MTKHV it was 0.241 ± 0.8; in that of CVCYDLYELLAITQLHLWSF, -0.344 ± 0.48.
As for DSISNISDPCGFLGQESWVN, the amyloid nucleation score amounted to 4.83 ± 0.063.
Turning to SGPIEIRPCIPRKLVCSYRH, the amyloid nucleation score was 1.01 ± 0.53.
Same read-out and setting: in the case of PVRGE it was 0.089 ± 0.8.
The same measure, in the same setting: the value for GALVR was -1.08 ± 0.55.

A short description of a further data set: amyloid nucleation score (Sup35N fusion, yeast selection) (log enrichment); library NNK3; higher = more nucleation; inactive = no reads after selection. Put shortly:
as §1
Substance GYDLFCGILMVDNSASIHTP gave an amyloid nucleation score of 2.84 ± 0.063.
Consider VSIRAVRYKVLGLFWSSTHV, for which the amyloid nucleation score entry was “inactive”.
In turn, NCVCEWTAFLYIPSIWGFEH showed an amyloid nucleation score of 1.78 ± 0.098.
Same read-out and setting: the value for NGFKEGLIAVLREQYLSYQ was “inactive”; that for RIVYCSFTKVG was “inactive”.
Still for that read-out and setting: the value for GLNYS was “inactive”; that for IVVFLDLFRDTFGLGLPTKG was “inactive”; that for QRVMFFCAMSLNKPRSV was “inactive”.
On to NIGWSVCERL, for which the amyloid nucleation score entry is “inactive”.
Still for that read-out and setting: the value for GTDWLDMVILGEPFYMYLST was “inactive”; that for MFVDSSISGIEIR was “inactive”.
Same read-out and setting: in the case of ASMLLDKYFANLYELVLRVF it was “inactive”; in that of KVNGYSLMLLDPVGGLTNT, “inactive”; in that of IFTLMINCLE, 0.809 ± 0.1.
Still for that read-out and setting: in the case of VTCPNFQKIYRQGCYGGFDT it was “inactive”.
With RNNVPGVEYVLDYLFMLKVM, the amyloid nucleation score entry is “inactive”.
On the same count and under the same terms, in the case of SILLVMP it was “inactive”; in that of CITSNVMRSSRLKLV, “inactive”; in that of TPHFYLIYALGISLIFWFVE, “inactive”.
Same read-out and setting: the value for NVSLVTVWWDNHY was “inactive”; that for VERRMTKVWTGARSPGRVFW was “inactive”; that for CLTIHWTVFSGAARLSFIMT was “inactive”.
Still for that read-out and setting: the value for HRLCSHYVFTGCPSNMRQCF was 0.083 ± 0.28; that for ETYYFSVGFFY was “inactive”.
The substance CWWCCATGTHSSSYIGRGVH registered an amyloid nucleation score of 0.844 ± 0.24.
As for VMCSWLTGCYIQKNRFQGSL, the amyloid nucleation score is 0.724 ± 0.27.
The substance KFGFCDIMKGLFRRMLGLKV came in with an amyloid nucleation score of -1.06 ± 1.3.
Same read-out and setting: the value for RRVFHWYKYCV was “inactive”; that for LVYTA was “inactive”; that for FVVGIFYSIQYIECSRVSSY was -0.106 ± 0.55.
As for RHLTVWLL, the amyloid nucleation score result was “inactive”.
QDVVNPPLFY: the amyloid nucleation score result is “inactive”.
The same measure, in the same setting: in the case of GMSCWGSMQWNVL it was 0.766 ± 0.17; in that of IGFRWY, “inactive”.
The same measure, in the same setting: in the case of FSYRPSNCYIR it was “inactive”; in that of GGWLLSEGLC, “inactive”.
On the same count and under the same terms, the value for VCEGMKMAALRYREERC was “inactive”; that for HRPGFAGGHLWTVFKYVR was “inactive”.
In the case of FRFWPFSPICNWY, the amyloid nucleation score result was “inactive”.
Still for that read-out and setting: in the case of QALPSRLGSAGFDYWPPAMS it was -0.039 ± 0.53; in that of KGCNETWFVNPRGRYCWEFC, “inactive”.
The same measure, in the same setting: the value for LSNMMVVPSTSERFFFRAMG was “inactive”; that for NLCRNDDSLFFCSS was “inactive”; that for FSLVAKMSFESLATNRWDSR was 1.41 ± 0.15.
On the same count and under the same terms, in the case of PVFLCSLLLVPKANSIPGK it was “inactive”.
On to DRGFGYGSITKGINA, for which the amyloid nucleation score result was “inactive”.
VVISYQTSMTNHGCLSFYQW returned an amyloid nucleation score of 2.13 ± 0.056.
Same read-out and setting: the value for ISRSGNLLGYKDLLVATKSG was “inactive”; that for LGVCSGH was “inactive”.
GGSIVVCLRHHRDLSMHSWD: the amyloid nucleation score entry is “inactive”.
On the same count and under the same terms, in the case of VVGFMYYARFLPSDFVSINA it was “inactive”; in that of VTRETADDATVSQFWLNPSE, “inactive”; in that of RSCVCTTESPLSMTGLRRVV, “inactive”.
The same measure, in the same setting: the value for YLLVHLAKCIFNWHLSSIEM was -0.109 ± 0.78; that for LSECLRHGSDDTRFEVVGQD was 1.34 ± 0.097; that for CLRSVDDWFKC was “inactive”.
Still for that read-out and setting: in the case of KCSTMGWRWYMSS it was -0.106 ± 0.93; in that of LCVSLNCPQFSFYSLQNQPY, 2.71 ± 0.053.
On to FNHSRYDSVFWFVVHPSYEG, for which the amyloid nucleation score result was “inactive”.
On the same count and under the same terms, in the case of KGLYV it was “inactive”.
With AYFLKEVNYMVKIYNLECRV, the amyloid nucleation score result was “inactive”.
On the same count and under the same terms, the value for GERWVQKIQ was “inactive”; that for SSGSFS was “inactive”.
As to EFIALSVFLLNFVSCLWSNV, the amyloid nucleation score result is “inactive”.
On to ECDHSCGRWNWIN, for which the amyloid nucleation score entry was “inactive”.
The same measure, in the same setting: the value for FRYPLNYN was “inactive”; that for NIWVQ was “inactive”; that for RARMV was “inactive”.
Still for that read-out and setting: the value for CRFSGCNESLGWKVGSTLVM was “inactive”.
